{
  "source": "patent US20250215100A1",
  "molecular_target": "human CD40 on cells (human) (UniProt P25942)",
  "sequence (P25942 21-277)": "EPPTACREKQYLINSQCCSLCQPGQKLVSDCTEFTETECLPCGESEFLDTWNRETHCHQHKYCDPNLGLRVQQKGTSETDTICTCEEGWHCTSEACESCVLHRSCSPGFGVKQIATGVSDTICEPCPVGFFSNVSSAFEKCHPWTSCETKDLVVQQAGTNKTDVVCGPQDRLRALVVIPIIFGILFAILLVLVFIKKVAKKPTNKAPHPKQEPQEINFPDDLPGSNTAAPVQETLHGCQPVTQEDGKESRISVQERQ",
  "test": "FACS, inhibition of human CD40L-his binding to CHO-K1/hCD40 cells",
  "data": [
    {"substance": "hIgG1 (antibody)", "values": [
      {"measurement": "Maximum inhibition rate (%)", "value": 2.3, "unit": "%"}
    ]}
  ]
}
